The text below walks through data of patent US20150183839A1, “SOYBEAN NODULATION REGULATORY PEPTIDES AND METHODS OF USE” (priority 2010, published 2015).

“Also recorded” adds a separate entry of the source.

One test relates to P. vulgaris nodulation. The experiment in a line: Overexpression of GmRIC1 in hairy roots of P. vulgaris, nodules counted. The format is in vivo, Phaseolus vulgaris. The following applies: vs vector only. The procedure: (§1) Transformation was done using the hairy root method. Agrobacterium rhizogenes containing a vector with the RIC1 gene (CLE30) and 35s promoter was injected into the stems of young plants. Once transgenic ‘hairy roots’ began growing from the stems the primary roots were removed and the plants with the transgenic roots were replanted and inoculated with the appropriate rhizobia strain.
(§2) All plants were grown in and in 30 well seed trays of grade 3 vermiculite. G. soja seeds were scarified and soaked in MQ H2O before planting. All plants were grown in growth cabinets under 16 h day and 8 h night conditions. P. vulgaris and G. max were grown at 28° C. G. soja were grown at 24° C. All plants were fertilised with a no nitrogen fertiliser and B&D solution (Broughton & Dilworth 1971).
(§3) A. rhizogenes K599 with either p15SRK2::GmRIC1 ox or p15SRK2 were grown on LB media (10 g/L Tryptone, 5 g/L Yeast extract, 10 g/L NaCl) for 2 days at 28° C. The bacteria were harvested by scraping it from the agar plate. The harvested bacteria were suspended in 3 mL MQ H2O, ensuring no lumps remained.
(§4) When all plants had unfolded cotyledons they were injected at the hypocotyl as close to the junction of the cotyledons as possible with the A. rhizogenes solutions (Kereszt et al, 2007; Estrada-Navarrete, 2006). Half of each of the WT and mutant lines received A. rhizogenes p15SRK2+GmRIC1 OX and the other half of the plants received A. rhizogenes p15SRK2; Totalling 4 treatment groups.
(§5) The infection technique was the same for all species using A. rhizogenes K599. To increase the likelihood of the K599 producing hairy roots, the A. rhizogenes was inoculated with 1 mL 200 μM acetosyringone one hour prior to harvesting the bacteria. After infection all seed trays were misted with H2O, covered and sealed to ensure high humidity.
Once root tips were visible at the point of infection, the primary roots of the plants were removed and the hairy roots were re-planted. Plants were left in the growth cabinets for one week to form an adequate root system. The plants were subsequently transferred to the glasshouse and re-potted into larger pots. After re-potting plants were also inoculated with the appropriate strain of rhizobia for that particular species. Plants were watered and fertilised with B&D solution (Broughton & Dilworth 1971). After 2-3 weeks plants were uprooted and the nodules counted.

The subject of the next test is G. soja nodulation. The experiment in a line: Overexpression of GmRIC1 in hairy roots of G. soja, nodules counted. Conditions: WT G. soja, vs vector only. The test is classed as in vivo, Glycine soja. The procedure: as §1, §2
A. rhizogenes K599 with either p15SRK2::GmRIC1 ox or p15SRK2 were grown on LB media (10 g/L Tryptone, 5 g/L Yeast extract, 10 g/L NaCl) for 2 days at 28° C. The bacteria were harvested by scraping it from the agar plate. The harvested bacteria were suspended in 3 mL MQ H2O, ensuring no lumps remained. […]
Once root tips were visible at the point of infection, the primary roots of the plants were removed and the hairy roots were re-planted. […] After 2-3 weeks plants were uprooted and the nodules counted.

In the next test the test system is soybean nodulation. In words: Over-expression of CLE genes in transgenic soybean hairy roots, nodule number (Example 1). The test is classed as in vivo, Glycine max. The following applies: for nodulation (nodule number) on over-expression: vs vector-only control. As for the experimental part: Soybean (Glycine max) lines used include the wild type Williams and its isogenic supernodulating nark mutant lines, nod4 and nod3-7 and the wild type Bragg and its isogenic hypernodulating nark mutant line, nts1116. Plants were grown in controlled glasshouse conditions (28° C./26° C. day/night, 16 hour day) in autoclaved pots and vermiculite where sterile growing conditions were required. Seeds requiring sterilisation were treated with 70% ethanol, 3% H2O2 for 1 min, followed by several rinses with water. Plants were watered as required with a modified nutrient solution lacking nitrogen (Herridge, 1982). Plants were inoculated with approximately OD600 0.01 Bradyrhizobium japonicum CB1809 or the corresponding NF mutant nodU grown in yeast-mannitol broth (YMB) at 28° for two days. For nitrate treatments, plants were watered with the indicated solutions of KNO3 every two days. For grafting experiments, reciprocal grafting was carried out 8 d after sowing and the graft unions were allowed to recover for 6 d before B. japonicum inoculation. Nodulation was scored three weeks after inoculation.
The full length CDS of CLE30, CLE60 and CLE80 was directionally cloned into the pKANNIBAL vector for expression of RNAi constructs (Wesley et al., 2001). Pfu polymerase (Stratagene, La Jolla, Calif.) was used to amplify PCR products incorporating restriction nuclease sites from cDNA samples shown to express the target gene. XhoI/EcoRI (for) and KpnI (rev) restriction sites were included in the primer sequences depending on internal restriction sites of each gene (full primer sequences are included in Table 2). Likely clones were confirmed by direct DNA sequencing and capillary separation. Constructs were sub-cloned into p15SRK2 or pM1KCK1 integration vectors (A. Kereszt, unpublished) as a NotI fragment before tri-parental mating to introduce the constructs into Agrobacterium rhizogenes K599. For transgenic root verification in the CLE60 over-expression experiments the DsRed reporter was subcloned into pM1KCK1 from pHairyRed, which is a modified version of pCAMBIA (M-H Lin, P M Gresshoff, B J Ferguson, unpublished). Tri-parental mating was used to introduce DsRed into A. rhizogenes K599 carrying the CLE60 construct. A. rhizogenes were subsequently used for the induction of transgenic soybean hairy roots according to Kereszt et al (2007).
To determine if the soybean CLE peptides regulate nodulation in a NARK-dependent manner, a reverse-genetics approach using a hairy-root transformation system was used. Over-expression of a systemic Q signal would be expected to inhibit nodulation, even in non-transformed roots. To test this, the complete CDS of CLE30, CLE60 or CLE80 was cloned into the pKANNIBAL vector for the expression of efficient RNAi constructs (Wesley et al., 2001). However, to generate over-expressing constructs, the antisense construct was omitted and the Pdk intron of pKANNIBAL was left intact. Previous studies have shown the inclusion of an intron can lead to higher and more consistent expression levels in transgenic plants (Norris et al., 1993).
Tri-parental mating was used to integrate the constructs into Agrobacterium rhizogenes K599 which induces the formation of transgenic hairy roots in soybean (Kereszt et al., 2007).

The next test has as its system G. max nodulation. In words: Overexpression of GmRIC1 in hairy roots of G. max, nodules counted (Example 2). The test is classed as in vivo, Glycine max. The following applies: vs empty vector; for nodulation on overexpression: G. max WT (Williams). As for the experimental part:
as §1, §2, §3, §4, §5
Once root tips were visible at the point of infection, the primary roots of the plants were removed and the hairy roots were re-planted. Plants were left in the growth cabinets for one week to form an adequate root system. […] After 2-3 weeks plants were uprooted and the nodules counted.

B1: CLE30: Glycine max CLAVATA3/ESR-related (CLE) protein, SEQ ID NO:5; rhizobia induced CLE, over-expressed in transgenic hairy roots (protein)
chain: MANATMATRVSILIALIILSTFFMTLQASNLHGHPFIRENNIADSHHFLHKYLDDLSKHIHVQDADDAPHKDGNTHRLAPEGPDPHHNFATPPRN
modifications: Glycine max
notes: rhizobia induced CLE, over-expressed in transgenic hairy roots
Consider B1, for which the nodulation on overexpression result in the test on P. vulgaris nodulation (P. vulgaris R32 supernodulation (AON) mutant) is given as “no effect”; in the test with P. vulgaris nodulation (P. vulgaris R32 supernodulation (AON) mutant, listed as GmRIC1), “no significant effect”; in the test on P. vulgaris nodulation (P. vulgaris WT cv. OAC RICO), “inhibits nodulation”; in the test on P. vulgaris nodulation (P. vulgaris WT cv. OAC RICO, listed as GmRIC1) it was “inhibition of nodulation”; in the test on G. soja nodulation, “inhibits nodulation”; in the test on G. soja nodulation (listed as GmRIC1) it was “completely inhibited nodulation; also recorded: complete inhibition of nodulation”. The nodulation on overexpression entry with G. max nodulation was “inhibits nodulation”; in the test with G. max nodulation (listed as GmRIC1), “completely inhibits nodulation”. For the same molecule, in the test with soybean nodulation (Glycine max), the NARK/SUNN/HAR1 dependent inhibition entry is recorded as “yes”. Further, the Systemic activity entry with soybean nodulation (Glycine max) is on record as “yes”. Moreover, the “nodulation (nodule number) on over-expression” value with soybean nodulation (nod4 supernodulation nark mutant plants) is “no reduction in the nodule numbers; also recorded: complete lack of nodule inhibition; also recorded: nodule numbers were not reduced”; in the test on soybean nodulation (wild-type (Williams) soybean, transgenic hairy roots), “completely abolishes soybean nodulation; also recorded: completely eliminated nodulation; also recorded: eliminated nodulation completely; also recorded: nodules were eliminated”. For the same molecule, the “nodule numbers on overexpression” value in the test with G. max nodulation (G. max nod4 lacking functional NARK) was “nodule numbers were unchanged”.
